The target of data set [1] is T1, UbcH5B S22R C85K-Ub (stable conjugate) (UniProt P62837 1-147; P0CG48 1-76, S22R | C85K, stably conjugated to Ub (C85K-Ub)).
T1 construct: UbcH5B with S22R and C85K; ubiquitin; mimic of UbcH5B~Ub; also called UbcH5B C85K S22R–Ub; source: made from purified Arabidopsis Uba1, UbcH5B C85K S22R and His-GST-Ub; purified (Ni2+ agarose, TEV cleavage, Source 15S, Superdex 75)
The experiment in a line: SPR; Biacore T200, CM-5 chip, 25°C; GST-tagged E3 captured on anti-GST (1,000-2,000 RU); analyte in 25 mM Tris-HCl pH 7.6, 150 mM NaCl, 0.1 mg/ml BSA, 1 mM DTT, 0.005% Tween-20; steady-state affinity; GST alone subtracted. As to conditions: both partners purified. Background: Surface plasmon resonance follows binding to a sensor surface in real time, without labels.

Data set [2] deals with the molecule itself. The experiment in a line: crystal structure; XR and UbV.XR mixed 1:1.2; sitting drop, 0.1 M NaHEPES pH 7.5, 1.4 M tri-Na citrate; 1.57 Å.

These results are taken from article PMC5655547, “A General Strategy for Discovery of Inhibitors and Activators of RING and U-box E3 Ligases with Ubiquitin Variants” (Molecular Cell, 2017).

B1: GST-tagged RING domain of XIAP (XR, residues 434-C) (domain or fragment, UniProt P98170 434-497, looked up)
chain: EISTEEQLRRLQEEKLCKICMDRNIAIVFVPCGHLVTCKQCAEAVDKCPMCYTVITFKQKIFMS
notes: XIAP RING domain, residues 434 to the C terminus; also called GST-XR; HisGST-XR; source: E. coli BL21(λDE3) GOLD, purified (glutathione agarose); not shown: His tag, N-terminal, kept
What is called Kd is a measure of binding affinity in units of concentration. Low readings indicate tighter binding, high ones weaker binding. Molecule B1 gave a Kd in data set [1] of 12.2 µM.

B2: RING domain of XIAP (XR, residues 434-C), tag removed (domain or fragment, UniProt P98170 434-497, looked up)
chain: B1 chain
notes: XIAP RING domain, residues 434 to the C terminus; dimeric RING in the crystal; not shown: His-GST, N-terminal, cleaved
Broadly, the stoichiometry N is the number of molecules, sites or subunits per partner or assembly. For B2, in data set [2], the “stoichiometry N” value came to 2.
